What was measured:
[1] = biological target: VarG metallo-β-lactamase (Vibrio cholerae (strain CVD101 chromosomal DNA)); assay: intact protein ESI Q-TOF mass spectrometry; putative dimer peak from SEC infused directly, positive ion mode, MaxEnt1 deconvolution; 10 μg/mL in the methods, 50 μg/mL in the legend
[2] = biological target: VarG metallo-β-lactamase (Vibrio cholerae (strain CVD101 chromosomal DNA)); assay: SEC; Superdex200 PrepGrade HiLoad 16/60, 20 mM Tris-HCl pH 8.25, 50 mM NaCl, 10% glycerol, 1 ml/minute; Mr from a calibration curve of standards
[3] = biological target: VarG metallo-β-lactamase (Vibrio cholerae (strain CVD101 chromosomal DNA)); assay: AUC; sedimentation velocity, 42,000 rpm, 20°C, 280 nm, SEDFIT c(s, fr) and c(s, M)
[4] = biological target: VarG metallo-β-lactamase (Vibrio cholerae (strain CVD101 chromosomal DNA)); assay: AUC
[5] = biological target: VarF ATPase subunit of the VarDEF ABC transporter (Vibrio cholerae (strain CVD101 chromosomal DNA)); assay: SEC; Superdex200 PrepGrade HiLoad 16/60, 20 mM Tris-HCl pH 8.25, 50 mM NaCl, 10% glycerol, 1 ml/minute; Mr from a calibration curve of standards
[6] = tested on: VarR (Vibrio cholerae O1 biovar El Tor N16961); assay: competition; conditions: 50 mM Tris-HCl pH 7.5, 5 mM EDTA, 1 mM DTT, 100 ug/ml BSA, 5% glycerol, on ice 10 min; 4% polyacrylamide gel

## VarG metallo-β-lactamase (enzyme)
[1]
  stoichiometry N: 2
[2]
  stoichiometry N: 2
[3]
  stoichiometry N: 2
[4]
  stoichiometry N: 2

## VarF ATPase subunit of the VarDEF ABC transporter (enzyme)
[5]
  stoichiometry N: 2

## 30 bp varR-varG IR
[6]
  binding signal: 1 ng

Reference: PMC5595328
